From patent US20250352667A1
Substitutions are numbered along the chain they refer to. Names may count otherwise.

Legend:
[1] = target: KEAP1 (wild-type full-length), His-tagged (human) (UniProt Q14145); test: AlphaScreen; 9.6 nM FLAG-NRF2, 150 nM His-KEAP1; wild type set to 100%
[2] = target: KEAP1 (wild-type full-length), His-tagged (human) (UniProt Q14145); test: AlphaScreen; 4.8 nM FLAG-NRF2, 150 nM His-KEAP1; Rep 1; control for I28V
[3] = target: KEAP1 (wild-type full-length), His-tagged (human) (UniProt Q14145); test: AlphaScreen; 2.4 nM FLAG-NRF2, 150 nM His-KEAP1; Rep 1; control for I86V
[4] = target: KEAP1 (wild-type full-length), His-tagged (human) (UniProt Q14145); test: AlphaScreen; 76.8 nM FLAG-NRF2, 150 nM His-KEAP1; Rep 1; control for I86V
[5] = target: KEAP1 (wild-type full-length), His-tagged (human) (UniProt Q14145); test: AlphaScreen; 153.6 nM FLAG-NRF2, 150 nM His-KEAP1; Rep 2; control for I86V
[6] = target: KEAP1 (wild-type full-length), His-tagged (human) (UniProt Q14145); test: AlphaScreen; 9.6 nM FLAG-NRF2, 150 nM His-KEAP1; signal against NRF2 only; control for I86V
[7] = target: KEAP1 (wild-type full-length), His-tagged (human) (UniProt Q14145); test: AlphaScreen; 19.2 nM FLAG-NRF2, 150 nM His-KEAP1; signal against NRF2 only; control for I28V
[8] = target: KEAP1 (wild-type full-length), His-tagged (human) (UniProt Q14145); test: AlphaScreen; 153.6 nM FLAG-NRF2, 150 nM His-KEAP1; signal against NRF2 only; control for I86V
[9] = target: KEAP1 (wild-type full-length), His-tagged (human) (UniProt Q14145); test: AlphaScreen; FLAG-NRF2 wt isoform 1 2.4 nM, His-KEAP1 150 nM; Rep 1; positive control for Q75R
[10] = target: KEAP1 (wild-type full-length), His-tagged (human) (UniProt Q14145); test: AlphaScreen; FLAG-NRF2 wt isoform 1 38.4 nM, His-KEAP1 150 nM; Rep 2; positive control for Q75R
[11] = target: KEAP1 (wild-type full-length), His-tagged (human) (UniProt Q14145); test: AlphaScreen; FLAG-NRF2 wt isoform 1 76.8 nM, His-KEAP1 150 nM; Rep 1; positive control for Q75R
[12] = target: KEAP1 (wild-type full-length), His-tagged (human) (UniProt Q14145); test: AlphaScreen; FLAG-NRF2 wt isoform 1 307.2 nM, His-KEAP1 150 nM; Rep 2; positive control for Q75R
[13] = target: KEAP1 (wild-type full-length), His-tagged (human) (UniProt Q14145); test: AlphaScreen; NRF2 wt isoform 1 19.2 nM, KEAP1 150 nM; signal against NRF2-only control; control for I86V
[14] = target: KEAP1 (wild-type full-length), His-tagged (human) (UniProt Q14145); test: AlphaScreen; 38.4 nM FLAG-NRF2, 150 nM His-KEAP1; Rep 1
[15] = target: KEAP1 (wild-type full-length), His-tagged (human) (UniProt Q14145); test: AlphaScreen; 76.8 nM FLAG-NRF2, 150 nM His-KEAP1; Rep 1
[16] = target: KEAP1 (wild-type full-length), His-tagged (human) (UniProt Q14145); test: AlphaScreen; 307.2 nM FLAG-NRF2, 150 nM His-KEAP1; Rep 1
[17] = target: KEAP1 (wild-type full-length), His-tagged (human) (UniProt Q14145); test: AlphaScreen; 307.2 nM FLAG-NRF2, 150 nM His-KEAP1; signal against NRF2 only
[18] = target: KEAP1 (wild-type full-length), His-tagged (human) (UniProt Q14145); test: AlphaScreen; 38.4 nM FLAG-NRF2, 150 nM His-KEAP1 (same value as in Table 27)
[19] = target: KEAP1 (wild-type full-length), His-tagged (human) (UniProt Q14145); test: AlphaScreen; FLAG-NRF2 I86V 2.4 nM, His-KEAP1 150 nM; Rep 3
[20] = target: KEAP1 (wild-type full-length), His-tagged (human) (UniProt Q14145); test: AlphaScreen; FLAG-NRF2 I86V 9.6 nM, His-KEAP1 150 nM; Rep 3
[21] = target: KEAP1 (wild-type full-length), His-tagged (human) (UniProt Q14145); test: AlphaScreen; FLAG-NRF2 I86V 38.4 nM, His-KEAP1 150 nM; Rep 1
[22] = target: KEAP1 (wild-type full-length), His-tagged (human) (UniProt Q14145); test: AlphaScreen; FLAG-NRF2 I86V 1228.8 nM, His-KEAP1 150 nM; Rep 1
[23] = target: KEAP1 (wild-type full-length), His-tagged (human) (UniProt Q14145); test: AlphaScreen; NRF2 I86V 2.4 nM, KEAP1 150 nM; signal against NRF2-only control
[24] = target: KEAP1 (wild-type full-length), His-tagged (human) (UniProt Q14145); test: AlphaScreen; NRF2 I86V 9.6 nM, KEAP1 150 nM; signal against NRF2-only control
[25] = target: KEAP1 (wild-type full-length), His-tagged (human) (UniProt Q14145); test: AlphaScreen; NRF2 I86V 1228.8 nM, KEAP1 150 nM; signal against NRF2-only control
[26] = target: KEAP1 (wild-type full-length), His-tagged (human) (UniProt Q14145); test: AlphaScreen; FLAG-NRF2 Q75R 9.6 nM, His-KEAP1 150 nM; Rep 1
[27] = target: KEAP1 (wild-type full-length), His-tagged (human) (UniProt Q14145); test: AlphaScreen; FLAG-NRF2 Q75R 153.6 nM, His-KEAP1 150 nM; Rep 1

Chain of KEAP1 (wild-type full-length), His-tagged (human) (Q14145 2-624 limits assumed): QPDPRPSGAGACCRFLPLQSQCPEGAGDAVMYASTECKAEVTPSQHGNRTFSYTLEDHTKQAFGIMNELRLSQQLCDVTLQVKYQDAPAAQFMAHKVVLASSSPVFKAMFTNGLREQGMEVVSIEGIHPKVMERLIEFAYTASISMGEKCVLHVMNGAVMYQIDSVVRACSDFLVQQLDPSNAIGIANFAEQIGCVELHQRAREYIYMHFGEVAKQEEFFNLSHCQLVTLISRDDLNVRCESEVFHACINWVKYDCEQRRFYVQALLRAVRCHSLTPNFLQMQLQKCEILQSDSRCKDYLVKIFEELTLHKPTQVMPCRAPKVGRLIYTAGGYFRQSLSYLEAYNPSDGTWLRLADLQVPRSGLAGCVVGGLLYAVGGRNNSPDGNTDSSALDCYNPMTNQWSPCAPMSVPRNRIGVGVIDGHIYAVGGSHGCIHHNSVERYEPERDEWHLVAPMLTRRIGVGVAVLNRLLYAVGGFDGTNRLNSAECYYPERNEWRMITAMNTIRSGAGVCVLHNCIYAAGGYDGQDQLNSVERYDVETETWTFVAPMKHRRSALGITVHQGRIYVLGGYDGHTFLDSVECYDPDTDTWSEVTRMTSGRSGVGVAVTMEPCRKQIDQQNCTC

B1: NRF2 isoform 1 (wild-type full-length), FLAG-tagged (protein)
chain: MMDLELPPPGLPSQQDMDLIDILWRQDIDLGVSREVFDFSQRRKEYELEKQKKLEKERQEQLQKEQEKAFFAQLQLDEETGEFLPIQPAQHIQSETSGSANYSQVAHIPKSDALYFDDCMQLLAQTFPFVDDNEVSSATFQSLVPDIPGHIESPVFIATNQAQSPETSVAQVAPVDLDGMQQDIEQVWEELLSIPELQCLNIENDKLVETTMVPSPEAKLTEVDNYHFYSSIPSMEKEVGNCSPHFLNAFEDSFSSILSTEDPNQLTVNSLNSDATVNTDFGDEFYSAFIAEPSISNSMPSPATLSHSLSELLNGPIDVSDLSLCKAFNQNHPESTAEFNDSDSGISLNTSPSVASPEHSVESSSYGDTLLGLSDSEVEELDSAPGSVKQNGPKTPVHSSGDMVQPLSPSQGQSTHVHDAQCENTPEKELPVSPGHRKTPFTKDKHSSRLEAHLTRDELRAKALHIPFPVEKIINLPVVDFNEMMSKEQFNEAQLALIRDIRRRGKNKVAAQNCRKRKLENIVELEQDLDHLKDEKEKLLKEKGENDKSLHLLKKQLSTLYLEVFSMLRDEDGKPYSPSEYSLQQTRDGNVFLVPKSKKPDVKKN
- Binding Percentage (%) [1]: 100%
- A-counts [2]: 1120 A-counts
- A-counts [3]: 860 A-counts
- A-counts [4]: 3020 A-counts
- A-counts [5]: 3090 A-counts
- S/N [6]: 3.6
- S/N [7]: 4.2
- S/N [8]: 2
- A-counts (NRF2 plus KEAP1) [9]: 419 A-counts
- A-counts (NRF2 plus KEAP1) [10]: 1450 A-counts
- A-counts (NRF2 plus KEAP1) [11]: 1490 A-counts
- A-counts (NRF2 plus KEAP1) [12]: 1570 A-counts
- S/N [13]: 4.1

B2: NRF2 isoform 1 (I28V full-length), FLAG-tagged (protein)
chain: B1 chain with I28V
- A-counts [14]: 1690 A-counts
- A-counts [15]: 1560 A-counts
- A-counts [16]: 1310 A-counts
- S/N [17]: 1.2
- S/N [18]: 2.7

B3: NRF2 isoform 1 (I86V full-length), FLAG-tagged (protein)
chain: B1 chain with I86V
- A-counts (NRF2 plus KEAP1) [19]: 1680 A-counts
- A-counts (NRF2 plus KEAP1) [20]: 2860 A-counts
- A-counts (NRF2 plus KEAP1) [21]: 3010 A-counts
- A-counts (NRF2 plus KEAP1) [22]: 1750 A-counts
- S/N [23]: 2.6
- S/N [24]: 3.6
- S/N [25]: 0.9

B4: NRF2 isoform 1 (Q75R full-length), FLAG-tagged (protein)
chain: B1 chain with Q75R
- A-counts (NRF2 plus KEAP1) [26]: 1180 A-counts
- A-counts (NRF2 plus KEAP1) [27]: 1070 A-counts
